Data on one substance can be found in PMC11885566.

This experiment deals with stable soluble Omicron EG.5.1 (6P) S trimer (SARS-CoV-2). Description: cryo-EM structure.

For the substance “stable soluble Omicron EG.5.1 (6P) S trimer (domain or fragment)”, the stoichiometry N was determined as 3.
